What was measured:
[1] = Distribution of labeled PEG-ADA2-K374D in CT26 peritibial tumors (IVIS fluorescent imaging); format: in vivo, Balb/C mice; conditions: for Fluorescent intensity at tumor: 0.5 mg/kg IV
Procedure: To assess the distribution and elimination of administered PEG-ADA2-K374D in the tumor microenvironment or in normal organs, immunofluorescence was used to assess the presence of PEG-ADA2-K374D administered to mice. PEG-ADA2-K374D was labeled at room temperature for 60 minutes with DyLight755 Sulfydryl-Reactive Dye (DL755), a near-IR fluor, using the DyLight 755 Antibody Labeling Kit (Thermo Scientific, Rockford, Ill.). Alexa Fluor 750 (AF 750) labeled bovine serum albumin (BSA, 1 mg/mL) was purchased from (Life Technology, Carlsbad, Calif.).
CT26 syngeneic tumors were produced by injecting 2×10^5 cells in 0.05 mL injection volume per animal into the right peritibial muscle of male Balb/C mice. When average tumor size reached 600 mm^3, tumor-bearing mice were staged into 2 groups (n=4/group) to receive either PEG-ADA2-K374D^DL755 at 0.5 mg/kg or BSA^AF750 at 0.5 mg/kg intravenously. The distribution of DL755 labeled PEG-ADA2-K374D (PEG-ADA2-K374D^DL755) and AF 750 labeled BSA (BSA^AF750) in mouse tumors was assessed using the IVIS Caliper fluorescent imaging system with an excitation wavelength of 745 nm and an emission wavelength of 800 nm (Caliper Life Sciences, Alameda, Calif.) and signal intensity was measured with LivingImage software. Images were captured before administration of labeled proteins and at 10 minute, 2, 6 hours and daily after administration of labeled proteins.

[2] = Thermal stability by differential scanning fluorimetry (DSF); format: physicochemical; conditions: 0.1-1 mg/mL protein
Procedure: The stability of the rHuADA2 WT and variants was measured by differential scanning fluorimetry (DSF) at increasing temperatures. DSF measures conformational stability, which correlates with thermal stability. The melting temperature (Tm) in DSF is defined as the midpoint of the protein unfolding transition.
Non-PEGylated WT rHuADA2, non-PEGylated rHuADA2 variants, and PEGylated forms of WT rHuADA2 and rHuADA2 variants were prepared at concentrations of 0.1-1 mg/mL and mixed with the ROX™ protein thermal shift dye (Applied Biosystems, Carlsbad, Calif.; Cat. No. 4461146) to a final dye concentration that corresponds to a 125-fold dilution of the stock ROX™ solution. Protein samples were then loaded into 96-well plate at a volume of 20 μL/well in triplicate. A ViiA7 RT-PCR System (Applied Biosystems, Carlsbad, Calif.) was used to measure the shift in fluorescence as the temperature of the samples were increased. The reactions were subjected to the following steps: incubation at 25° C. for 2 min; ramping of temperature from 25 to 99° C. at a rate of 0.05° C. per second; followed by a 99° C. incubation for 2 min. The wavelengths used for emission and excitation were 623 nanometers (nm) and 580 nm, respectively.

[3] = Heparin binding ELISA (heparin coated microtiter plate); conditions: single and S265N combination variants (Table 34)
Procedure: A 96-well plate was coated with 100 μL of 200 μg/mL heparin sodium salt (Calibochem, EMD Milipore, Billerica, Mass.; Cat. No. 375095) in Na2CO3 buffer (pH 9.6), overnight at 4° C. The wells were blocked with 5% milk in PBS, and washed 6 times with PBS. 3 μM of select rHuADA2 variants (see Table 20), WT rHuADA2 (positive control) and WT rHuADA1 (negative control) were added to the wells individually and incubated for 2 hours at room temperature, followed by washing 6 times with PBS. 100 μL of 1:1000 diluted horseradish peroxidase (HRP)-anti-FLAG antibody (Abcam, Cambridge, UK; Cat. No. Ab1238) was added to the wells to detect binding and incubated at room temperature for 1 hour. The ELISA reactions were developed by adding the 3,3′,5,5′-Tetramethylbenzidine (TMB) substrate solution (Pierce, Thermo Fisher Scientific, Rockford, Ill.) according the manufacturer's instructions and reading the optical density at 450 nm (OD450) on a plate reader.

[4] = Spectrophotometric adenosine deaminase assay at varying pH (pH optimum); format: biochemical
Procedure: Adenosine deaminase activity of rHuADA2 and variants at varying pH were assessed to determine the pH optimum of each. The adenosine deaminase activity was determined spectrophotometrically by direct measurement of changes in adenosine absorbance. […] During the deamination reaction, the absorbance of ADO decreases while that of INO increases with time. Since the dynamic changes in absorbance make it difficult to monitor activity at a single wavelength, the relative ADO activity was determined as a ratio of the ADO peak to isobestic point (i.e. the wavelength where ADO and INO have the same extinction coefficient). The isobestic point, which is 253 nm, remains unchanged and is concentration independent, so that it is the reference point to correct for volume or intensity discrepancies.
To construct the standard curve for ADO and INO, a series of solution mixtures in 0.001% Tween-20 containing different concentrations of ADO and INO were prepared. The total concentration of ADO and INO mix was 50 μM, in 1×PBS (10 mM phosphate, 137 mM NaCl, 2.7 mM KCl), pH 7.4. The samples were scanned with the wavelengths between 220 nm and 300 nm to determine the isosbestic point, where all spectra cross.
For performing the spectrophotometric adenosine deaminase assay of ADA2 and variants, a 2× solution containing 10 mM ADO in 100 mM potassium phosphate buffer (KPB), 0.1% Tween-20 at different pHs (i.e. 5.5, 6, 6.5, 6.75, 7, 7.25, 7.4, 7.75 and 8) were prepared. A separate 2× solution containing 2 μg/mL WT rHuADA2 or variants were prepared in the same 100 mM potassium phosphate buffer (KPB), 0.1% Tween-20 at the respective pH (i.e. 5.5, 6, 6.5, 6.75, 7, 7.25, 7.4, 7.75 and 8). An equal volume of the ADO solution and the ADA2 solution (wildtype or variants) were mixed to initiate reaction. At each time point (i.e. 1, 3, 5, 7, 9, 11, 13 and 15 min), a small aliquot (4 μl) was removed and diluted 50 times by adding to 196 μl 1×PBS, pH 7.4. The diluted samples were further diluted 2 fold (in duplicates) by adding 85 μl samples to 85 μl 1×PBS in a UV-transparent half area plate. The absorbance at 253 nm and 261 nm were measured of each diluted sample.
Adenosine concentration was determined using the A261/A253 ratio and the standard curve. Adenosine deaminase activity was measured by negative change in ADO concentration per min×100.

[5] = Kinetic assessment of adenosine deaminase activity (ammonia assay, Michaelis-Menten); format: biochemical; conditions: [E] = 8.5 nM; for kcat: kcat=Vmax/0.0085/60
Summary of the method: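 Coupled ammonia assay: rHuADA2 WT or variants (1 μg/mL, 17 nM in 2× mix) with adenosine 20 μM–20 mM, α-ketoglutarate, NADPH and GDH, at pH 7.6 or pH 6.5 (PIPES), room temperature. Michaelis-Menten fit gave Km, Vmax, kcat, kcat/Km.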

Heparin Binding ELISA Average OD450 [3] | Molecule | Tm, melting temperature by DSF [2] | Adenosine deaminase activity Δ [ADO]/min × (−100) ([4]; pH 5.5) | Adenosine deaminase activity Δ [ADO]/min × (−100) ([4]; pH 6) | Adenosine deaminase activity Δ [ADO]/min × (−100) ([4]; pH 6.5) | Adenosine deaminase activity Δ [ADO]/min × (−100) ([4]; pH 6.75) | Adenosine deaminase activity Δ [ADO]/min × (−100) ([4]; pH 7) | Adenosine deaminase activity Δ [ADO]/min × (−100) ([4]; pH 7.25) | Adenosine deaminase activity Δ [ADO]/min × (−100) ([4]; pH 7.4) | Adenosine deaminase activity Δ [ADO]/min × (−100) ([4]; pH 7.75) | Adenosine deaminase activity Δ [ADO]/min × (−100) ([4]; pH 8) | Km ([5]; pH 6.5) | Vmax ([5]; pH 6.5) | kcat ([5]; pH 6.5) | Km ([5]; pH 7.6) | Vmax ([5]; pH 7.6) | kcat ([5]; pH 7.6) | further results
– | BSA^AF750: Alexa Fluor 750 (AF 750) labeled bovine serum albumin, control agent | – | – | – | – | – | – | – | – | – | – | – | – | – | – | – | – | Fluorescent intensity at tumor ([1]; Hour 0.2): 2.95E+09; Fluorescent intensity at tumor ([1]; Hour 2): 3.92E+09; Fluorescent intensity at tumor ([1]; Hour 6): 4.64E+09; Fluorescent intensity at tumor ([1]; Hour 24): 3.18E+09; Fluorescent intensity at tumor ([1]; Hour 48): 1.94E+09; Fluorescent intensity at tumor ([1]; Hour 72): 1.30E+09; Fluorescent intensity at tumor ([1]; Hour 96): 9.86E+08; Fluorescent intensity at tumor ([1]; Hour 144): 7.78E+08; Fluorescent intensity at tumor ([1]; Hour 168): 6.39E+08; Fluorescent intensity at tumor ([1]; Hour 196): 6.59E+08; Fluorescent intensity at tumor ([1]; Hour −1 (before administration)): 7.86E+08; eliminated from tumors ([1]; day 6 post injection, 0.5 mg/kg intravenously): ~100%
0.92 | S265N/K374D: ADA2 combination variant SEQ ID NO:59 (protein, human ADA2 S262N/K371D, mature numbering) IDETRAHLLLKEKMMRLGGRLVLNTKEELANERLMTLKIAEMKEAMRTLIFPPSMHFFQAKHLIERSQVFNILRMMPKGAALHLHDIGIVTMDWLVRNVTYRPHCHICFTPRGIMQFRFAHPTPRPSEKCSKWILLEDYRKRVQNVTEFDDSLLRNFTLVTQHPEVIYTNQNVVWSKFETIFFTISGLIHYAPVFRDYVFRSMQEFYEDNVLYMEIRARLLPVYELSGEHHDEEWSVKTYQEVAQKFVETHPEFIGIKIIYNDHRSKDVAVIAESIRMAMGLRIKFPTVVAGFDLVGHEDTGHSLHDYKEALMIPAKDGVKLPYFFHAGETDWQGTSIDRNILDALMLNTTRIGHGFALSKHPAVRTYSWDKDIPIEVCPISNQVLKLVSDLRNHPVATLMATGHPMVISSDDPAMFGAKGLSYDFYEVFMGIGGMKADLRTLKQLAMNSIKYSTLLESEKNTFMEIWKKRWDKFIADVATK | 60.8 °C | 22.89 | 33.51 | 39.06 | 41.58 | 45.98 | 42.69 | 43.37 | 22.29 | 4.36 | 1510 µM | 43.85 µM/min | 85.98 s⁻¹ | 2860 µM | 78.29 µM/min | 153.51 s⁻¹ | –
0.69 | S265N/R23E/K374D: ADA2 combination variant SEQ ID NO:62 (protein, human ADA2 S262N/R20E/K371D, mature numbering) IDETRAHLLLKEKMMRLGGELVLNTKEELANERLMTLKIAEMKEAMRTLIFPPSMHFFQAKHLIERSQVFNILRMMPKGAALHLHDIGIVTMDWLVRNVTYRPHCHICFTPRGIMQFRFAHPTPRPSEKCSKWILLEDYRKRVQNVTEFDDSLLRNFTLVTQHPEVIYTNQNVVWSKFETIFFTISGLIHYAPVFRDYVFRSMQEFYEDNVLYMEIRARLLPVYELSGEHHDEEWSVKTYQEVAQKFVETHPEFIGIKIIYNDHRSKDVAVIAESIRMAMGLRIKFPTVVAGFDLVGHEDTGHSLHDYKEALMIPAKDGVKLPYFFHAGETDWQGTSIDRNILDALMLNTTRIGHGFALSKHPAVRTYSWDKDIPIEVCPISNQVLKLVSDLRNHPVATLMATGHPMVISSDDPAMFGAKGLSYDFYEVFMGIGGMKADLRTLKQLAMNSIKYSTLLESEKNTFMEIWKKRWDKFIADVATK | 59.8 °C | 20.27 | 28.16 | 35.51 | 33.24 | 40.08 | 42.28 | 34.66 | 18.46 | 4.94 | 1500 µM | 43.42 µM/min | 85.14 s⁻¹ | 3130 µM | 72.78 µM/min | 142.71 s⁻¹ | –
